Source: paper PMC6412114

Columns and labels:
IDH1 [1] = biological target: T1, IDH1 (UniProt O75874 1-414); experiment: EMSA
IDH1 [2] = biological target: T1, IDH1; experiment: EMSA; remark: listed apart in the source

T1 sequence (O75874 whole entry): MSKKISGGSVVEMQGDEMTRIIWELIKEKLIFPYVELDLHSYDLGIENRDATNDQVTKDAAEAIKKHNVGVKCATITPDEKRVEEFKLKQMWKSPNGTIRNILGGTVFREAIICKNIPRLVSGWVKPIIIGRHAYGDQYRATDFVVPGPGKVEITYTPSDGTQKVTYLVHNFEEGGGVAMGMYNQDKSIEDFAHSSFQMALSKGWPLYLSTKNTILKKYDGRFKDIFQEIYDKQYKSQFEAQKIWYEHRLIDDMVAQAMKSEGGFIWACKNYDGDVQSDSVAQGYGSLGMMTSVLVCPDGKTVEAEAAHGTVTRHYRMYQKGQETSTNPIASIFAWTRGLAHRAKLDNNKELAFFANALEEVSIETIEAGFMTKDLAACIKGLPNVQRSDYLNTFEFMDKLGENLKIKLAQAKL

Binder	binding result (IDH1 [1])	Kd (IDH1 [2]) [nM]
AU-rich dsRNA (dsRNA) RNA 1: GGAUCCAUUUAUUUAUUUAUUUAAGCUUGG RNA 2: CCUAGGUUAAAUAAAUAAAUAAAUCGAUCC	no binding	–
AU-rich dsDNA (dsDNA) DNA 1: GGATCCATTTATTTATTTATTTAAGCTTGG DNA 2: CCTAGGTTAAATAAATAAATAAATCGATCC	no binding	–
GGAUCCAUUUAUUUAUUUAUUUAAGCUUGG (ssRNA) [AU-rich ssRNA]	–	680 ± 70
AU-rich DNA/RNA hybrid (DNA:RNA) RNA: GGAUCCAUUUAUUUAUUUAUUUAAGCUUGG DNA: CCTAGGTTAAATAAATAAATAAATCGATCC	no binding	–
GGATCCATTTATTTATTTATTTAAGCTTGG (ssDNA) [AU-rich ssDNA]	no binding	–
